# According to paper PMC9482650, “Quantitative fragmentomics allow affinity mapping of interactomes” (Nature Communications, 2022):
# T1: NHERF3_3, Q5T2W1
# T1 sequence (Q5T2W1 238-333, limits assumed, looked up): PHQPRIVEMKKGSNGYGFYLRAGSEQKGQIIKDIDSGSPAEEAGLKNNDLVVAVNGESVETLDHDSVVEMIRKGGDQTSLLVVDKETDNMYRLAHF
# T2: RADIL, Q96JH8
# T2 sequence (Q96JH8 971-1071, limits assumed, looked up): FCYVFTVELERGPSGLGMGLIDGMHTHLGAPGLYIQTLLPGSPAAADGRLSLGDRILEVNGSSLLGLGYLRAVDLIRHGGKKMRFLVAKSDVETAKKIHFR
# T3: DLG3_1, Q92796
# T3 sequence (Q92796 125-227, limits assumed, looked up): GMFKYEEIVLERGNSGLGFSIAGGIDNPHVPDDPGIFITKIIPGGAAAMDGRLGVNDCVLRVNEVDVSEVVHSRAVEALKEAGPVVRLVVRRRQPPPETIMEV
# T4: RHPN1, Q8TCX5
# T4 sequence (Q8TCX5 508-602, limits assumed, looked up): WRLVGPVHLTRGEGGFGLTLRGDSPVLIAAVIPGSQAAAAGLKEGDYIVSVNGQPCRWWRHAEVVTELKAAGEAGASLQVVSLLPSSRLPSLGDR
# T5: SNTG1, Q9NSN8
# T5 sequence (Q9NSN8 52-150, limits assumed, looked up): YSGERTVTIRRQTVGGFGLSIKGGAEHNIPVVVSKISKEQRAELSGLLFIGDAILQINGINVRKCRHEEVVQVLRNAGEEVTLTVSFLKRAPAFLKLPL
# T6: DLG3_2, Q92796
# T6 sequence (Q92796 221-321, limits assumed, looked up): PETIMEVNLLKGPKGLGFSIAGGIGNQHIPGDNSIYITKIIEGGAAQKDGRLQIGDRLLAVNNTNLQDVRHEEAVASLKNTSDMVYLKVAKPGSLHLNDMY
# T7: PTPN13_1, Q12923
# T7 sequence (Q12923 1088-1188, limits assumed, looked up): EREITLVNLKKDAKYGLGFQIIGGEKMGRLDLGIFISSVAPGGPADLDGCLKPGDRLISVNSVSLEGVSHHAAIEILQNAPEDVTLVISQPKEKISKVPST
# T8: SNTG2, Q9NY99
# T8 sequence (Q9NY99 68-166, limits assumed, looked up): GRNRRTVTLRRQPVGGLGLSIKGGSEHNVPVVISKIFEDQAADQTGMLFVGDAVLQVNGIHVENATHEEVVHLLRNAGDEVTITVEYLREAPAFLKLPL
# T9: MPDZ_5, O75970
# T9 sequence (O75970 695-796, limits assumed, looked up): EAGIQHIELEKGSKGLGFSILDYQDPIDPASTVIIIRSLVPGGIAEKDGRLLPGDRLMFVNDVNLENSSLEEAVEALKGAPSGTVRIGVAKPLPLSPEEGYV
# T10: LIN7A, O14910
# T10 sequence (O14910 103-200, limits assumed, looked up): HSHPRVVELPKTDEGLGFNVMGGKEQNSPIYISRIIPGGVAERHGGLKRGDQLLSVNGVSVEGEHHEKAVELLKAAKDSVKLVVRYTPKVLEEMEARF
# T11: DFNB31_1, Q9P202
# T11 sequence (Q9P202 135-233, limits assumed, looked up): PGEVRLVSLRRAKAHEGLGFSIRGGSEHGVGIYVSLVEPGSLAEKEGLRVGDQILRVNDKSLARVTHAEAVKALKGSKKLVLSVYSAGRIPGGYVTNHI
# Tests used:
# Assay in all cases: holdup assay
# Set-up in all cases: key: below the threshold = too weak to quantify, mostly under pKd 3.1 to 4
# Conditions in all cases: plain residues with an end cap or a label only (N-terminal biotin on a linker: ado-ado)
# NHERF3_3, Q5T2W1 = target: T1, NHERF3_3, Q5T2W1
# TJP1_3, Q07157 = target: TJP1_3, Q07157
# Chain of TJP1_3, Q07157 (Q07157 416-512): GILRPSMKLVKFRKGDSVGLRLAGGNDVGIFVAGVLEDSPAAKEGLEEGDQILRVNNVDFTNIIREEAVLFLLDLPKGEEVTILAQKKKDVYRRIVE
# LNX1_2, Q8TBB1 = target: LNX1_2, Q8TBB1
# Chain of LNX1_2, Q8TBB1 (Q8TBB1 371-470): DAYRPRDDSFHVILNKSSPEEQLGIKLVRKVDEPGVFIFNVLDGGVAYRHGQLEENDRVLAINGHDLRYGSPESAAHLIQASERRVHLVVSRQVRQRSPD
# PTPN3, P26045 = target: PTPN3, P26045
# Chain of PTPN3, P26045 (P26045 505-587): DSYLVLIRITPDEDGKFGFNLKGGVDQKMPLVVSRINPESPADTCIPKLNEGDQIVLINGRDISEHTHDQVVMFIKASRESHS
# RADIL, Q96JH8 = target: T2, RADIL, Q96JH8
# SCRIB_2, Q14160 = target: SCRIB_2, Q14160
# Chain of SCRIB_2, Q14160 (Q14160 857-960): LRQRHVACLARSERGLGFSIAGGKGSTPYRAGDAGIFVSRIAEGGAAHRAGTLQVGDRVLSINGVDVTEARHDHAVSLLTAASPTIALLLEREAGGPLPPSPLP
# MAGI2_4, Q86UL8 = target: MAGI2_4, Q86UL8
# Chain of MAGI2_4, Q86UL8 (Q86UL8 772-865): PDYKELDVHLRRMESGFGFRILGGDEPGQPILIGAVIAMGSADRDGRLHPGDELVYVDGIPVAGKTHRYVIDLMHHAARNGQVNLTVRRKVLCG
# AHNAK1, Q09666 = target: AHNAK1, Q09666
# Chain of AHNAK1, Q09666 (Q09666 4-100): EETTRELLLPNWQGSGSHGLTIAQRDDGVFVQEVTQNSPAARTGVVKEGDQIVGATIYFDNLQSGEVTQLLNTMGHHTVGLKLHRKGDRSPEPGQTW
# FRMPD2_3, Q68DX3 = target: FRMPD2_3, Q68DX3
# Chain of FRMPD2_3, Q68DX3 (Q68DX3 1073-1166): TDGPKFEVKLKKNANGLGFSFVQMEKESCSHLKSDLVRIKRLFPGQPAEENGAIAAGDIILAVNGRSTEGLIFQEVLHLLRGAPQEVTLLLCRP
# DLG3_1, Q92796 = target: T3, DLG3_1, Q92796
# RHPN1, Q8TCX5 = target: T4, RHPN1, Q8TCX5
# MAGI1_2, Q96QZ7 = target: MAGI1_2, Q96QZ7
# Chain of MAGI1_2, Q96QZ7 (Q96QZ7 456-580): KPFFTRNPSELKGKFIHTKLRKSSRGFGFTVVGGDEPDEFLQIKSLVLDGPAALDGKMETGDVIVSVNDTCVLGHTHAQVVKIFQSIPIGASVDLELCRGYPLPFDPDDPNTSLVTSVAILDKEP
# FRMPD2_2, Q68DX3 = target: FRMPD2_2, Q68DX3
# Chain of FRMPD2_2, Q68DX3 (Q68DX3 944-1038): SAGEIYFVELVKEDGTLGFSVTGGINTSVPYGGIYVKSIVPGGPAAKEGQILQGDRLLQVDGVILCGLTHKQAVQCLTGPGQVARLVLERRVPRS
# Inadl_9, Q8NI35 = target: Inadl_9, Q8NI35
# Chain of Inadl_9, Q8NI35 (Q8NI35 1530-1615): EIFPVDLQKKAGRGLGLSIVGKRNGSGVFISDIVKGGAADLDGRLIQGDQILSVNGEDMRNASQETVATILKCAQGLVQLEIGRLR
# SNTG1, Q9NSN8 = target: T5, SNTG1, Q9NSN8
# DLG3_2, Q92796 = target: T6, DLG3_2, Q92796
# PTPN13_1, Q12923 = target: T7, PTPN13_1, Q12923
# NHERF4_1, Q86UT5-2 = target: NHERF4_1, Q86UT5-2
# Chain of NHERF4_1, Q86UT5-2 (Q86UT5 other isoform, or with tags, fused parts or gaps): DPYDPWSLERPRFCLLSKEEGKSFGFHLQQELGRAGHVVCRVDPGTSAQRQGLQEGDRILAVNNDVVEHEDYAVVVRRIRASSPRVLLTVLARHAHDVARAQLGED
# Inadl_10, Q8NI35 = target: Inadl_10, Q8NI35
# Chain of Inadl_10, Q8NI35 (Q8NI35 1673-1763): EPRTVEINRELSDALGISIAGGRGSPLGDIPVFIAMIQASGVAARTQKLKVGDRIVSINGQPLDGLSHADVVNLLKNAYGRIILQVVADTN
# GORASP2, Q9H8Y8 = target: GORASP2, Q9H8Y8
# SNTG2, Q9NY99 = target: T8, SNTG2, Q9NY99
# DLG1_3, Q12959 = target: DLG1_3, Q12959
# Chain of DLG1_3, Q12959 (Q12959 457-571): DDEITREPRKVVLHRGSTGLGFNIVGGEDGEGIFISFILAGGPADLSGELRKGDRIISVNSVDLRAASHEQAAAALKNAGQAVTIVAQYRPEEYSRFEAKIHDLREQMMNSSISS
# MPDZ_5, O75970 = target: T9, MPDZ_5, O75970
# LIN7A, O14910 = target: T10, LIN7A, O14910
# LIMK2, P53671 = target: LIMK2, P53671
# Chain of LIMK2, P53671 (P53671 143-248): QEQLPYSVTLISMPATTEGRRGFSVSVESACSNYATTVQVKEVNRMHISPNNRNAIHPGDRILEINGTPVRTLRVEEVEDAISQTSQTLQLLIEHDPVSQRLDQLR
# Inadl_3, Q8NI35 = target: Inadl_3, Q8NI35
# Chain of Inadl_3, Q8NI35 (Q8NI35 359-469): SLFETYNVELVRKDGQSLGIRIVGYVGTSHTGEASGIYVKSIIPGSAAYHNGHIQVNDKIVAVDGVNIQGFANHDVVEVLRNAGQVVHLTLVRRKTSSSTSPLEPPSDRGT
# DFNB31_1, Q9P202 = target: T11, DFNB31_1, Q9P202
Binder,"pKd (NHERF3_3, Q5T2W1)","pKd (TJP1_3, Q07157)","pKd (LNX1_2, Q8TBB1)","pKd (PTPN3, P26045)","pKd (RADIL, Q96JH8)","pKd (SCRIB_2, Q14160)","pKd (MAGI2_4, Q86UL8)","pKd (AHNAK1, Q09666)","pKd (FRMPD2_3, Q68DX3)","pKd (DLG3_1, Q92796)","pKd (RHPN1, Q8TCX5)","pKd (MAGI1_2, Q96QZ7)","pKd (FRMPD2_2, Q68DX3)","pKd (Inadl_9, Q8NI35)","pKd (SNTG1, Q9NSN8)","pKd (DLG3_2, Q92796)","pKd (PTPN13_1, Q12923)","pKd (NHERF4_1, Q86UT5-2)","pKd (Inadl_10, Q8NI35)","pKd (GORASP2, Q9H8Y8)",other results
"PKLMGVETVV [DUSP10, Q9Y6W6]",below the threshold,below the threshold,3.96,4.66,4.5,3.98,4.14,below the threshold,3.61,4.63,4.42,4.14,4.1,3.55,4.47,5.2,3.48,below the threshold,below the threshold,5.03,"pKd (SNTG2, Q9NY99): 4.51; pKd (DLG1_3, Q12959): 4.52; pKd (MPDZ_5, O75970): 3.58; pKd (LIN7A, O14910): 3.58; pKd (LIMK2, P53671): below the threshold; pKd (Inadl_3, Q8NI35): 4.51; pKd (DFNB31_1, Q9P202): 4.09"
"QLAEIAESGL [ITK, Q08881]",below the threshold,below the threshold,below the threshold,4.89,below the threshold,3.6,below the threshold,below the threshold,below the threshold,3.56,3.83,below the threshold,3.52,below the threshold,3.72,below the threshold,below the threshold,3.91,below the threshold,below the threshold,"pKd (SNTG2, Q9NY99): 3.82; pKd (DLG1_3, Q12959): 3.86; pKd (MPDZ_5, O75970): 3.6; pKd (LIN7A, O14910): 3.65; pKd (LIMK2, P53671): below the threshold; pKd (Inadl_3, Q8NI35): below the threshold; pKd (DFNB31_1, Q9P202): 3.97"
"EGGKKRESEA [APPL1, Q9UKG1]",below the threshold,below the threshold,below the threshold,4.14,below the threshold,below the threshold,below the threshold,below the threshold,below the threshold,below the threshold,below the threshold,below the threshold,below the threshold,below the threshold,below the threshold,4.22,below the threshold,below the threshold,below the threshold,below the threshold,"pKd (SNTG2, Q9NY99): below the threshold; pKd (DLG1_3, Q12959): below the threshold; pKd (MPDZ_5, O75970): below the threshold; pKd (LIN7A, O14910): below the threshold; pKd (LIMK2, P53671): below the threshold; pKd (Inadl_3, Q8NI35): below the threshold; pKd (DFNB31_1, Q9P202): 3.63"
"GSSSKEGTSV [RRBP1, Q9P2E9]",below the threshold,below the threshold,3.49,5.01,below the threshold,4.11,4.32,below the threshold,below the threshold,3.69,3.49,3.87,below the threshold,3.57,3.63,3.78,below the threshold,3.51,below the threshold,below the threshold,"pKd (SNTG2, Q9NY99): 3.59; pKd (DLG1_3, Q12959): 3.57; pKd (MPDZ_5, O75970): below the threshold; pKd (LIN7A, O14910): below the threshold; pKd (LIMK2, P53671): below the threshold; pKd (Inadl_3, Q8NI35): below the threshold; pKd (DFNB31_1, Q9P202): 3.8"
"ADRDHASDQL [CTBP1, Q13363]",below the threshold,below the threshold,below the threshold,below the threshold,below the threshold,below the threshold,below the threshold,below the threshold,below the threshold,below the threshold,below the threshold,below the threshold,below the threshold,below the threshold,below the threshold,below the threshold,below the threshold,4.05,below the threshold,below the threshold,"pKd (SNTG2, Q9NY99): below the threshold; pKd (DLG1_3, Q12959): below the threshold; pKd (MPDZ_5, O75970): below the threshold; pKd (LIN7A, O14910): below the threshold; pKd (LIMK2, P53671): below the threshold; pKd (Inadl_3, Q8NI35): below the threshold; pKd (DFNB31_1, Q9P202): below the threshold"
